Literature values in article PMC3432731.

Molecular target: Cyclin A (Homo sapiens) (UniProt P20248)
Sequence of UniProt P20248 (P20248 whole entry): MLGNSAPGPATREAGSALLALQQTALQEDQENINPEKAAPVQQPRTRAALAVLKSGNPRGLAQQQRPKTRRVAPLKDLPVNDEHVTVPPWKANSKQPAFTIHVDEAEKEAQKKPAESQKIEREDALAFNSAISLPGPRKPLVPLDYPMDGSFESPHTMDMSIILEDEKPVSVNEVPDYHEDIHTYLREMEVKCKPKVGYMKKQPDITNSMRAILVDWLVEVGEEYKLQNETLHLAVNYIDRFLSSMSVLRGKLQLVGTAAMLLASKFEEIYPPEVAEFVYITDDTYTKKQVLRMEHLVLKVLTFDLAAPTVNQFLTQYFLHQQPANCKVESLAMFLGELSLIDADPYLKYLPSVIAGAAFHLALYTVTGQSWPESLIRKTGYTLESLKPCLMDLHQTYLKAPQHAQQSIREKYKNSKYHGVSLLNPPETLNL

p27 (from UniProt P46527)
Kd: 25 nM
